Reference: patent US9944718B2, “ADAM22 for use as a prognostic variable, and target for therapy, of a metastatic breast cancer disease” (Royal College of Surgeons in Ireland, priority 2011, dated 2018)
Peptide text beside a SMILES is read from it.

Legend:
[1] = Toxicity study of LGI1 peptide mimetic in vivo; settings: preliminary in vivo studies; FIG. 1F
Description: LGI1 mimetic was delivered by daily intraperitoneal injection to C57/bl6 mice at high (100 ug/kg/day), medium (10 ug/kg/day) and low dose (1 ug/kg/day) for 30 days.

[2] = tested on: endocrine resistant LetR cells; test: Motility assay, LetR cells; assay type: cell-based; settings: 5 nM, FIG. 1C/1E
Description: (§1) • For cell culture use Minimum Essential Medium-Eagle (EMEM; BioWhittaker, Product No. 12-611Q) containing the following supplements (=EMEM Complete Medium): 10% fetal calf serum (BioWhittaker, Product No. 14-503F), 1X penicillin/streptomycin solution (BioWhittaker, Product No. 17-602E), 1% L-glutamine (BioWhittaker, Product No. 17-605E), 1% non-essential amino acids (BioWhittaker, Product No. 13-114E) and 1% sodium pyruvate (BioWhittaker, Product No. 13-115E). • Split cells when they reach 60-80% confluency (every 2-3 days), diluting 1:5 to 1:10. • For cell motility, harvest cells with trypsin-versene mixture (BioWhittaker, Product No. 17-161F) and dilute into EMEM Complete Medium (warmed to 37° C.). For cells cultured in a T-75 flask, wash cells with 3 ml of trypsin. Add another 3 ml of trypsin and aspirate 2 ml. Allow cells to detach by incubating flask at 37° C. for 5 minutes and then add 9 ml of EMEM Complete Medium and centrifuge cells at 400×g for 5 minutes at room temperature. • Wash 3× with Serum-Free Culture Medium (warmed to 37° C.) (see Procedure section). • Adjust cell density to 10^4 cells/ml in EMEM serum-free medium and add 50 μl of the cell suspension to each well of a 96-well microplate (=500 cells/well). Cell motility is stimulated with 50 μl of 10% fetal bovine serum (FBS) diluted in EMEM serum-free medium. […]

[3] = tested on: LetR cells; test: Cellular differentiation in 3D culture, LetR cells; assay type: cell-based; settings: LetR cells treated with LGI1; n=3; FIG. 1D
[4] = tested on: endocrine resistant LetR cells; test: Xenograft model of endocrine resistance; assay type: in vivo; settings: FIG. 1G
Description: As ADAM22 expression has previously only been described in the central nervous system, a therapeutic directed against systemic ADAM22 has the potential to be highly specific for the breast and have low toxicity. The neuronal protein, LGI1 serves as a specific extracellular ligand for ADAM22^4. […] The Applicant has shown that treatment with recombinant LGI1 reduced cellular migration and restored differentiation in endocrine resistant cells in a similar manner to that observed with knockdown of ADAM22 (FIGS. 1C and D). A 22 amino acid peptide mimetic of LGI1 with a simple hairpin structure against the active binding domain of ADAM22 has been developed. […] In vivo studies have been undertaken to assess the efficacy of the LGI1 mimetic in reducing breast cancer burden in endocrine resistant breast cancer. […] This has significant advantage over previous methods described of detecting metastatic disease^9.

[5] = tested on: MCF7 cells; test: Motility assay, MCF7 cells; assay type: cell-based; settings: 5 nM, FIG. 1C
Description: as §1

[6] = tested on: endocrine resistant LY2 cells; test: Motility assay, LY2 cells; assay type: cell-based; settings: 5 nM, FIG. 1C/1E
Description: as §1

[7] = LetR cells in vivo, daily injection

For CC[C@H](C)[C@H](NC(=O)[C@H](Cc1ccccc1)NC(=O)[C@H](CCCNC(=N)N)NC(=O)[C@@H](NC(=O)[C@H](CC(C)C)NC(=O)[C@H](CS)NC(=O)[C@@H](NC(=O)[C@H](Cc1ccc(O)cc1)NC(=O)[C@@H](NC(=O)[C@H](CC(=O)O)NC(=O)CNC(=O)[C@@H](N)CCCCN)C(C)C)[C@@H](C)CC)[C@@H](C)O)C(=O)NCC(=O)N[C@@H](CC(=O)O)C(=O)N[C@@H](CO)C(=O)N[C@@H](CCCCN)C(=O)N[C@H](C(=O)N[C@@H](CCSC)C(=O)N[C@@H](CCCCN)C(=O)N[C@@H](Cc1c[nH]c2ccccc12)C(=O)NCC(=O)NCC(=O)O)C(C)C [LGI1 mimetic] (H-KGDVYICLTRFIGDSKVMKWGG-OH), the tolerability / toxicity [1] was “well tolerated with no toxicity observed”.

B1: LGI1: neuronal protein and known ADAM22 ligand LGI1 (SEQ ID NO: 1), GENBANK AAQ89244 (protein, listed as Homo sapiens)
chain: MESERSKRMGNACIPLKRIAYFLCLLSALLLTEGKKPAKPKCPAVCTCTKDNALCENARSIPRTVPPDVISLSFVRSGFTEISEGSFLFTPSLQLLLFTSNSFDVISDDAFIGLPHLEYLFIENNNIKSISRHTFRGLKSLIHLSLANNNLQTLPKDIFKGLDSLTNVDLRGNSFNCDCKLKWLVEWLGHTNATVEDIYCEGPPEYKKRKINSLSSKDFDCIITEFAKSQDLPYQSLSIDTFSYLNDEYVVIAQPFTGKCIFLEWDHVEKTFRNYDNITGTSTVVCKPIVIETQLYVIVAQLFGGSHIYKRDSFANKFIKIQDIEILKIRKPNDIETFKIENNWYFVVADSSKAGFTTIYKWNGNGFYSHQSLHAWYRDTDVEYLEIVRTPQTLRTPHLILSSSSQRPVIYQWNKATQLFTNQTDIPNMEDVYAVKHFSVKGDVYICLTRFIGDSKVMKWGGSSFQDIQRMPSRGSMVFQPLQINNYQYAILGSDYSFTQVYNWDAEKAKFVKFQELNVQAPRSFTHVSINKRNFLFASSFKGNTQIYKHVIVDLSA
modifications: (1)..(557) LGI1 protein
For B1, the cellular migration [2] was “significantly reduced cellular migration”, the cellular differentiation [3] was “restored cellular differentiation” and the “cell proliferation in vivo” value [4, 7] was “inhibits”. The metastasis in vivo [4, 7] was “inhibits”, the tumour burden ([4]; xenograft model of endocrine resistance) was “significantly reduced tumour burden” and the cellular migration [5] was “no discernable effect”. For the same molecule, the cellular migration [6] was “significantly reduced cellular migration”.
